In the supplement of paper PMC10567573:
± gives the standard deviation.

Assay: protein stability index of a GFP-peptide fusion (GPS, HEK-293T) (PSI 1-6); higher = more stable
[1] = treatment: DMSO, c terminus: a fixed tail appended
[2] = treatment: MLN4924 1 uM, 8 h, c terminus: a fixed tail appended
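Further: 24-mer peptide tiles fused after GFP, lentivirally expressed, FACS-sorted into six equal bins by GFP/DsRed ratio, decoded by Illumina sequencing, PSI is the read-weighted mean bin number.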

Sequence | protein stability index [1] | protein stability index [2] | protein stability index (treatment: DMSO, c terminus: native) | protein stability index (treatment: MLN4924 1 uM, 8 h, c terminus: native)
KQLICPICLEMFTKPVVILPCQHN [TRIM63] | 2.97 ± 0.31 | 3.01 ± 0.43 | – | –
LKTSKMALSPSATAKRINRTSLSS [CDC14A] | 3.71 ± 0.26 | 3.54 ± 0.25 | – | –
CEVPTCSLCKVFGAHKDCQVAPLT [TRIM55] | 3.58 ± 0.2 | 3.7 ± 0.25 | – | –
SGSESDHTTRSSLRGPRERAPSER [DVL3] | 5.33 ± 0.32 | 5.39 ± 0.24 | – | –
IAENGVSERDSEAAKQNHVTADDF [EHMT1] | 5.39 ± 0.15 | 5.42 ± 0.11 | – | –
AMAIINGSLYVFGGTTGYIYSTDL [KLHDC10] | 3.16 ± 0.2 | 2.74 ± 0.33 | – | –
RLRVELECEEGELSFYDAERHCHL [TRIM35] | 3.66 ± 0.17 | 3.75 ± 0.075 | – | –
TPVVLVGNKSDLKQLRQVTKEEGL [RIT1] | 4.54 ± 0.15 | 4.59 ± 0.32 | – | –
KAHETLHQSLSLASSPKGTIENIL [CDC25A] | 3.55 ± 0.5 | 3.59 ± 0.22 | – | –
KCLVTEAQTLLRLSGVQRVESVFF [RSAD1] | 2.53 ± 0.43 | 2.4 ± 0.25 | – | –
SQSLCLNKPTMSFKDYIQERSDPV [ETS2] | 3.54 ± 0.32 | 3.67 ± 0.53 | – | –
SLRGRAWQYLSGGKVKLQQNPGKF [TBC1D10A] | 3.13 ± 0.52 | 2.94 ± 0.29 | – | –
IELAPLSMPRINHGVLSAEGFLFV [GAN] | 3.34 ± 1.1 | 2.81 ± 0.61 | – | –
PRRKKLKSTSKYIYQTLFLNGENS [GMCL1] | 2.69 ± 0.17 | 2.79 ± 0.16 | – | –
RDVKPENFLIGRQGNKKEHVIHII [CSNK1G1] | 2.26 ± 0.42 | 2.33 ± 0.21 | – | –
DDISVDSLDFTKKILHTAWHPAEN [PPP2R2C] | 3.12 ± 0.36 | 3.12 ± 0.49 | – | –
DEQKEEEEEEGEEEELIRIFQEQQ [FAM9B] | 5.51 ± 0.34 | 5.47 ± 0.29 | – | –
RHSKGLQILGQTLKASMRELGLLI [KCNA1] | 2.96 ± 0.5 | 2.89 ± 0.15 | – | –
KVAKLLGYSTHADFVLEMNTAKST [NLN] | 1.9 ± 0.33 | 2.35 ± 0.24 | – | –
IVAGGYDERVLENVEHYQELKKMV [ALG2] | 3.14 ± 0.25 | 3.2 ± 0.11 | – | –
DDEQYAWESSAGGSFTVRADHGEP [HSP90AB1] | 5.14 ± 0.29 | 5.07 ± 0.12 | – | –
ETAPLTLESLPTDPLLLILSFLDY [FBXO3] | 2.36 ± 0.19 | 2.28 ± 0.19 | – | –

Sequence | protein stability index [1] | protein stability index [2] | protein stability index (treatment: DMSO, c terminus: native) | protein stability index (treatment: MLN4924 1 uM, 8 h, c terminus: native)
GPYDPNSVRISFAKGWGPCYSRQF [SMAD6] | 2.19 ± 0.17 | 2.25 ± 0.18 | – | –
KAPSKLGLIISGPILQEGMDEEKL [DLC1] | 4.47 ± 0.38 | 4.54 ± 0.36 | – | –
NMCLVATGGADAYYEMGIHCWDVA [IMPA1] | 2.13 ± 0.23 | 2.3 ± 0.18 | – | –
RFIHLVTGCVLGSSGKVLPKWGWE [POMT2] | 3.51 ± 1.3 | 3.15 ± 0.63 | – | –
RFLANEVLQENYTHLPKADIFALA [WEE1] | 2.27 ± 0.2 | 2.33 ± 0.41 | – | –
CDWLRATGFPQYAQLYEDFLFPID [DLC1] | 2.31 ± 0.45 | 2.26 ± 0.24 | – | –
PAATMAVELHYEEGSPRNLGTPTS [C2CD2L] | 4.4 ± 0.17 | 4.52 ± 0.2 | – | –
AQNDLDISRIKRGNTTLESTDTL [P2RY14] | – | – | 5.26 ± 0.17 | 5.25 ± 0.22
YGFYDECLRKYGNANVWKYFTDLF [PPP2CA] | 2.5 ± 0.21 | 2.67 ± 0.38 | – | –
TVGTPDYIAPEVFMQTGYNKLCDW [STK38L] | 2.82 ± 0.16 | 2.97 ± 0.37 | – | –
MAPVMAHVDPEEPWSPCSARFITD [ADAMTS4] | 3.76 ± 0.4 | 3.85 ± 0.37 | – | –
WTAPLVMRTTNLDNRCKLFDSPSL [CDC25A] | 2.4 ± 0.17 | 2.52 ± 0.28 | – | –
ASAPTTPCQKSPNGVRVFPPAMPP [TRIM9] | 4.14 ± 0.25 | 4.2 ± 0.17 | – | –
LLRTARVRRECWFLPTALLCAYGF [SLC19A2] | 2.54 ± 0.8 | 2.54 ± 0.43 | – | –
YKCSWCGKSFSQNTNLHTHQRTHT [ZNF75A] | 4.65 ± 0.45 | 4.29 ± 0.54 | – | –
DRTSHRLHTANLGDSGFLVVRGGE [PPTC7] | 4.08 ± 0.21 | 4.11 ± 0.27 | – | –
QLGYLLFGTQVENFSTFIKCIFTQ [PKD2L1] | 2.83 ± 0.41 | 3.27 ± 0.55 | – | –
LPDELGSQLPQVLHVSLGQKLVAA [MOSPD3] | 3 ± 0.34 | 3.14 ± 0.089 | – | –
SRTQEPSLGKQKVFIIRKSLLDEL [SOAT2] | 2.04 ± 0.31 | 2.23 ± 0.34 | – | –
ITDLPRIDVSKREPPPVKQELPPY [EFHC1] | 4.37 ± 0.033 | 4.45 ± 0.17 | – | –
DVSSTEEFLELSPQKLKEVISLEK [GAN] | 4.88 ± 0.18 | 4.87 ± 0.16 | – | –
IRRAYPDANLLNDRVLRAMLKAEE [CCND1] | 2.96 ± 0.24 | 3.52 ± 0.47 | – | –
